Experimental data from the supplement of paper PMC10567573.

B1: FAM50A (parent)
chain: HIFPASRWEPYDPEKKWDKYTIR
B2: LYSMD4 (parent)
chain: LLQRELAQEDSLNKLALQYGCKVA

Variants of: B1
Assay: protein stability index of a GFP-peptide fusion (GPS, HEK-293T) (PSI 1-6); higher = more stable
Conditions: c terminus: native
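Also: lentivirally expressed fusions sorted by FACS into six bins by GFP to DsRed ratio, PSI derived from sequencing read proportions per bin multiplied by bin number.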

Protein stability index of substitutions, site by site:
P13: T 2.3; C 1.48; I 3.04; L 1.58; K 2.25; N 2.05; V 2.72; Q 1.74; E 1.86; W 1.25; R 2; F 2.8; M 2.53; D 1.75; G 2.03; Y 2.13; A 2.44; H 2.19; S 2.1
W17: P 2.56; F 2.9; Y 2.29; N 2.54; R 2.68; L 2.37; E 3.48; M 2.61; G 2.43; H 2.42; A 2.45; I 2.64; T 2.25; C 3.46; K 2.57; V 2.62; D 2.51; Q 3.14; S 3
D18: E 3.2; K 3.01; S 1.45; N 4.48; R 2.01; P 2.99; Y 2.39; A 1.96; M 1.92; T 2.37; L 2.08; V 2.17; C 2.61; I 2.48; F 1.55; H 2.58; G 2.28; Q 2
D12: S 2.49; Y 1.75; N 2.08; Q 2.19; R 2.07; T 2.11; W 1.8; M 2.6; P 1.69; V 3.47
K16: Y 1.66; P 2.48; M 1.71; I 1.54; F 3.28; H 1.72; S 2.6; T 1.81; G 1.77; R 2.59; Q 2.79; C 1.96; D 1.78; V 1.97; L 2.63; W 1.92; A 1.76; E 2.79
I22: Q 2.91; V 2.75; M 2.05; S 2.72; F 2.92; N 3.07; R 1.59; G 2.29; T 2.62; D 2.02; C 2.15; L 2.25; H 2.19; K 3.3; Y 2.98; W 2.06; E 2.25; P 3.88; A 2.03
Y20: A 1.86; M 2.2; Q 2.48; K 2.6; P 2.93; G 2.16; E 2.02; W 2.96; N 2.73; R 2.81; C 1.77; F 2.67; H 2.74; V 2.28; L 2.26; I 1.49; D 3.29; T 3.05; S 2.74
T21: V 2.55; A 2.08; Y 2.71; N 2.54; Q 2.18; L 2.32; G 2.38; R 2.38; M 2.08; W 2.86; H 2.2; I 1.74; S 1.89; K 1.93; C 1.97; E 2.7; F 2.06; P 2.36
E14: V 1.59; W 1.65; Y 2.68; S 2.65; R 2.49; A 2.66; Q 2.04; G 2.5; F 1.55; N 2.42; M 2.38; I 2.68; H 1.76; D 2.02; K 2.27; C 2; P 2.2; L 2.1; T 1.96
K19: C 1.81; H 2.03; Y 1.35; S 1.89; T 3.02; N 2.52; M 1.9; P 2.3; V 1.31; E 2.53; Q 2.63; G 2.84; L 2.04; R 2.6; F 2.25; A 2.18; I 2.22; D 2.24; W 3.02
R23: Y 2.1; F 1.85; D 2.58; E 2.04; S 2.1; P 3.67; A 3.17; V 2.27; C 2.08; L 2.54; I 2.21; W 1.72; T 1.87; K 2.4; G 2.59; N 2.27; H 2.2; Q 2.12; M 2.1
K15: D 2.05; R 1.8; L 1.57; F 2.2; T 2.33; E 1.66; N 1.71; M 2.16; C 3.43; V 2.1; P 1.99; G 2.27; S 2.67; Q 2.13; W 3; Y 2.12; H 1.45; I 1.9; A 2.23

Variants of: B2
Assay: as above
Conditions: c terminus: a fixed tail appended

Protein stability index, by site and new letter:
Q3: Y 1.3; L 1.59; T 1.27; N 2.3; S 3.41; P 1.41; I 1.46; H 2.24; G 2.85; M 1.65
A7: E 1.8; T 1.87; F 2.73; M 2.77; R 1.49; K 2.14; Y 2.12; H 2.72; Q 2.02; P 1.97; I 2.63; D 2.09; V 1.48; W 1.95; C 1.73
R4: C 3.8; K 2.82; V 3.51; P 2.06; L 2.03; Y 3.28; H 1.56; T 1.9; S 1.25; D 2.08; A 1.64; G 1.24; N 2.04
Q8: K 1.66; H 1.54; S 2.25; N 3.38; G 1.42; A 1.73; T 1.45; E 1.84; R 1.47; M 1.92; D 4.68; I 1.89; L 1.58; Y 2.21; P 1.48; F 1.59
E5: T 2.55; S 1.87; R 2.05; H 1.91; P 1.99; N 1.71; Q 1; V 2.88; Y 2.21; A 3.05; F 3.86; D 1.44; K 1.76
L2: S 2.06; D 2.63; H 1.02; F 2.25; P 2.31; M 2.27; K 2.6; A 2.26; C 1.67; I 2.18; V 2.29; N 2.04; Y 1.61; W 1.5; Q 1.86; E 2.92; T 1.91
L6: D 2.5; T 1.92; V 1.62; E 3; A 2.06; I 1.52; W 1.87; N 2.24; S 1.67; K 2.11; C 2.02; R 1.61; G 1.95; Y 1.92; H 2.39; Q 2.18; M 1.37
L1: P 1.51; A 1.96; Y 2.5; H 1.91; R 1.6; Q 1.32; E 1.5; G 1.52; T 1.8; W 2.31; I 2.28; N 2.09; F 1.55; D 1.96; K 1.99
E9: A 1.53; C 1.53
